Experimental data reported in the supplement of paper PMC9170038.

Test system: K4 kissing-loop RNA reporter
Experiment: apparent KD of K4 kissing-loop reporter; higher = weaker reporter binding
Conditions: Eterna round: R107
Procedure: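 RNA-MaP round R107: designed RNA switches with theophylline, tryptophan, arginine or FMN aptamers are transcribed on-chip within common flanks. They are titrated with a labelled K4 kissing-loop RNA reporter in RNA-MaP buffer (100 mM Tris pH 7.5, 80 mM KCl, 4 mM MgCl2), without ligand or with the indicated ligand. Median apparent KD per design.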

[1] = input ligand: theophylline 20 uM
[2] = input ligand: tryptophan 2.4 mM
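Note: bound reporter read as fluorescence of individual clusters on recovered sequencing chips by microscopy, with normalized cluster intensities fitted with a binding model.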

| Sequence | apparent KD of K4 kissing-loop reporter (input ligand: FMN 200 uM) | apparent KD of K4 kissing-loop reporter (input ligand: arginine 13.2 mM) | apparent KD of K4 kissing-loop reporter (input ligand: none) | apparent KD of K4 kissing-loop reporter [1] | apparent KD of K4 kissing-loop reporter [2] |
| --- | --- | --- | --- | --- | --- |
| AAUAAAAUCACGGCCGCCACUGAAUAAUUGUUAAGUAGUGAUGUUACUUUACUUUUCUUAGUUAACAGGACCGGGUGAAUAUUUA [#18 K4 Tryptophan B Exclusion] | 113 nM | 101 nM | 107 nM | 101 nM | 190 nM |
| AGACUACCACACUGUCAAUAGACAGUGGACUAGGAUAUGCUGAUAAGCAGAAGGAGUGAUGUUCCUGGGUAGUCAAUAAAAUAAU [FmnAX 13 G28+G67] | 484 nM | 366 nM | 526 nM | 696 nM | 425 nM |
| UACUCUCCUCCUGAUACCAGAUAAAUAUUAAUACAUUAGUGAUGUUAAUGCCCAAACCCGAUCCCUUGGCAGCAGAAUAUGCAGG [theeternabot_sameState_KL_Theo_B_25] | 152 nM | 240 nM | 202 nM | 258 nM | 126 nM |
| UGUGCUGUGUAGUGUAAUGUUUUGCGGGAUACCAGAGUCUUUUUAUUCCCUUGGCAGCUUGAGUGAUGUUUGAUGCUGUUCUUGU [bbtbmullin] | 376 nM | 322 nM | 356 nM | 336 nM | 313 nM |
| UAAUGCAUGACGGCCGCCACUAGUACUGGAGUGAUGUUGUGGUACGGCGGCAAUAUAGGGUGGACUAGGACCGGGUCAUGCAUAU [KL-XTryp-B12 #analogue] | 403 nM | 336 nM | 346 nM | 380 nM | 432 nM |
| GUUGACUACCAGAGGUGAUGUAUAGUAUCGCGAGGACCGGUACGGCCGCCACUCGUGAAGAGAAAGGAGUGAUGUUCCGUAAUGG [C9] | 222 nM | 254 nM | 322 nM | 340 nM | 122 nM |
| GUCGAUGGUAACCGCUGACGUCGAUGAUGGGAGGAUAUGUUAGUUGACAGAAGGCCCAGUGAUGUUGGGCGUUUGUCUUGGUAUA [Ustecexe] | 517 nM | 143 nM | 145 nM | 134 nM | 136 nM |
| UGUGUUUACCUGACUCAGUGAUGUUGAGAAGGAGCGUGCAAAUGCACAGGUAGGUCGCUCAACCUAAAUUCAGGUGAGCACUAAA | 321 nM | 261 nM | 323 nM | 234 nM | 169 nM |
| GUGUGUGUCGGAGGAUAUGCGAUAGAUGUAGGAGAAUUAGUGAUGUUAGUUAUGGUAGAGAUAGGAGUAGAAGGUUGGUGUGUGU [RHig 3/7 B] | 440 nM | 413 nM | 484 nM | 572 nM | 428 nM |
| GAUACACUUUCAGGUAUCCAGUGACUGGAUACCAGCAUGGAAACAUGCCCUUGGCAGCCAGAACUGGAAGUGAUGUUUCCAGUAA [Design7] | 215 nM | 166 nM | 195 nM | 214 nM | 199 nM |
| CGAACACCCUCGGCCGCCACUAGCCGUAGCCUGCGCUUGCGGAGUGAUGUUCUGAAGCAGGAUGUUAGGACCGGGAGCUACAUCC [theeternabot_sameState_KL_Trp_B_33] | 527 nM | 542 nM | 446 nM | 428 nM | 371 nM |
| GCCGUAGAUUGAAGGAGCGGACAGAUACGGGUAUCCAGUGAUGUUGGAAGGUAGCUACUAGUCCAGGUAGGUCGCAAUCUACGGC | 283 nM | 111 nM | 304 nM | 286 nM | 164 nM |
| GUAGGAUGAGGAGGAGGAUGAAUUACUGAAGGAGCGCAUAUUUAUGCAGGUAGGUCGCGGUAAAGAAGUAUAGUGAUGUUAUAUA [SSArgA.I] | 410 nM | 343 nM | 264 nM | 479 nM | 246 nM |
| AUGUCUGAUAGCAGUGAUGUUGCUUCGGAUACCAGACGCGAUCAUGUCCCUUGGCAGCUGACACGGCACGUGCUAGGUUAGAUGG [whbob_Ex_Theo_A_th74] | 123 nM | 94.5 nM | 105 nM | 112 nM | 95.9 nM |
| ACGAUCUUCGGCCUAUGAGUGAUGUUUAUGCGAGGACCGGUACGGCCGCCACUCGGGCGGUUAUUCACUACGCCUCUUCCGUCGA [theeternabot_exclusion_KL_Trp_A_37] | 900 nM | 435 nM | 1040 nM | 517 nM | 649 nM |
| UUGGGCGAGGUAACGUGGAUAUCUCGUCGCAAGGAUAUCUGGAAACAGAGAAGGUGCUACAUUACCGGCAGUGAUGUUGCUGACC | 418 nM | 101 nM | 555 nM | 347 nM | 121 nM |
| AAUCCUUACGGAGUGAUGUUCCGUAGCGAUACCAGCCAUUGCGAUGGCCCUUGGCAGCGCUAUAAGCAUUGCUAUUAAGGGCCAA [Theo A Ex t7a] | 134 nM | 107 nM | 124 nM | 121 nM | 126 nM |
| UUGUUUGGUUGAGAGGUUGGGCGAGAUGAUACCAGUAUAGUAUUGUACCCUUGGCAGCAUAUGAGAGAUAUAGUGAUGUUGUAUG [SSTheophA.X] | 521 nM | 358 nM | 529 nM | 532 nM | 411 nM |
| UCGGAUGUUCUGUCGAGAUGAGCAAUAGCACGAGGACCGGUACGGCCGCCACUCGACCCAGUGAUGUUGGGUGGCUAAGUUCAGC [Geragean] | 265 nM | 239 nM | 208 nM | 285 nM | 147 nM |
| AAGUGUUCUAGUGAUACCAGACAAUUUUAUUUUUUCUUUUUUGCUAAGUGAUGUUUAGCAGUCCCUUGGCAGCACUAUUUCACUA [JR_SSTheophyB_Sub018] | 129 nM | 109 nM | 106 nM | 147 nM | 128 nM |
| AGGAUCCGUCGACAAAAGUCGACAUAAUCCAAGGAUAUGACGAAAGUCAGAAGGUGGGCAUAAGUCCAGUGAUGUUGGAGGAUCC [FmnA 18 #SwitchBubble #K4Late] | 575 nM | 360 nM | 587 nM | 523 nM | 445 nM |
| GCUAUGGUAGGAAGGAGCGCUAAUUUAUUUUUACGAGUGAUGUUCGGUAGUAGAUUGUUAAAGCAGGUAGGUCGCCUACUAUAGC [Arginine B K4 17] | 103 nM | 124 nM | 106 nM | 85.7 nM | 92.5 nM |

| Sequence | apparent KD of K4 kissing-loop reporter (input ligand: FMN 200 uM) | apparent KD of K4 kissing-loop reporter (input ligand: arginine 13.2 mM) | apparent KD of K4 kissing-loop reporter (input ligand: none) | apparent KD of K4 kissing-loop reporter [1] | apparent KD of K4 kissing-loop reporter [2] |
| --- | --- | --- | --- | --- | --- |
| UAGGAGUGAUGUUCCUUUAGCAGGUAGGAAGGAGCGCCCAUUUGGGCAGGUAGGUCGCCUACUGGCCCUAAGUUAAACCUUAGGC [KL-SSArg-A12] | 160 nM | 161 nM | 146 nM | 161 nM | 118 nM |
| GUAUUGUGCCUGGAUACCAGACACCCGAGUGAUGUUCGGAGCAGAGUGAUGUUCUAAUAAGUCCCUUGGCAGCCGGUCGCAGUCG [Same State Theophylline B gf 4] | 810 nM | 869 nM | 914 nM | 535 nM | 886 nM |
| UGUACCGAGUCAGGAUAUGGCGUCGAAAGACGAAAUGGAGUGAUGUUCCUUAUCUGCGAAAGCAGUCCAGAAGGGACUUGGUACU [FmnBS 27 #SwitchBubble #StaticStem #DoubleMagnetSystem] | 134 nM | 120 nM | 137 nM | 123 nM | 137 nM |
| CGCCAGUGAUGUUGGCGCAGGUUGCGGGAAGGAGCGCGCGUAAGCGCAGGUAGGUCGCCUGCAGGCCAGUGAUGUUGGCAAUCUG [Same State Arginine A GF 30] | 130 nM | 110 nM | 143 nM | 111 nM | 116 nM |
| ACACGUGUGGCAGGAUAUCGGGCUGUGGAUCGGCUGGUUACUUAUUCUCGACCAGUGAUGUUGGUACGAGAAGGGCUACCCAGAA [Cetebera] | 145 nM | 124 nM | 139 nM | 135 nM | 116 nM |
| AGGUUUUGAUUAGGAUAUGCACUGAGGAGGAGAAUAUAGUGAUGUUAUAUAAUAGGAAUUAGUAGAGUAGAAGGGAUUGAGGUUU [SSFMNB.U] | 206 nM | 223 nM | 172 nM | 248 nM | 142 nM |
| GCUAUGGUUGGAAGGAGCGUUGGGUUACUAAUAAGAGUGAUGUUCGAUAGUAGGUAAUUGUAGCAGGUAGGUCGCCAACUAUAGC [KL-Arg B26] | 290 nM | 304 nM | 329 nM | 234 nM | 211 nM |
| CAGCAGAGUGAUGUUCUGCUUACUGCGGAUACCAGCUUUGCCAGAGGCCCUUGGCAGCCGGGCGGCUCAGUGAUGUUGGGUUGUU [Same State Theophylline A GF 14] | 234 nM | 140 nM | 186 nM | 208 nM | 167 nM |
| UAUGUACACGGGUAGUGGUACAUCGAGGAAGGAGCGUGCGCAGGCACAGGUAGGUCGCCUCAGCGCACGAGUGAUGUUCGUGGGC [Inares] | 327 nM | 259 nM | 306 nM | 298 nM | 265 nM |
| CUAUCCCGCCGUGUACGUAAUAUACGGUGCCGAGGACCGGUACGGCCGCCACUCGAUAAGCUUUGUCGGAGUGAUGUUCCGACCG [Maais] | 200 nM | 156 nM | 229 nM | 280 nM | 202 nM |
| CCAUUCUUUUACGAUACCAGUUUAAUUUAUUUAUUCAUAACCCUUGCCGAGUGAUGUUCGGACCCUUGGCAGCGUUUGCGAGAGG [vvuvmullin] | 331 nM | 314 nM | 463 nM | 485 nM | 358 nM |
| GGCAGUGAUGUUGCCUAAGCAACGCAUGCAGAGGAUAUUCGUUCGGGAAGAAGGCUGCAGCGUUCUCUCGUCAGUGAUGUUGGCG [Same State FMN A GF 24] | 140 nM | 115 nM | 127 nM | 130 nM | 114 nM |
| AAAGUUGAUGAGUUGGGUAUGUGUUCCGAAGGAGCGAGAUUUAUCUCAGGUAGGUCGCGGAACUUGAGUGAUGUUCAUGUAUAAA [KL-XArg-A9 #analogue] | 356 nM | 408 nM | 491 nM | 637 nM | 305 nM |
| UGUACCGAGUCAGGAUAUGGCGUCGAAAGACGAAUCUUAGUGAUGUUAGGGAUCUGCGAAAGCAGUCUAGAAGGGACUUGGUACU [FmnBS 26 U37+U68] | 396 nM | 372 nM | 439 nM | 574 nM | 462 nM |
| GGGCGCGGCGCGGCCGCCACUGGGCCUGGGCGCUCGCUGAGUGAUGUUCGCCGGCGGCUGGGUCGUAGGACCGGGUGCCGGCUGG [BDazzled - #3 SS Tryptophan B] | 610 nM | 490 nM | 1270 nM | 902 nM | 452 nM |
| AGUGAUGUGGGAAGGAGCGCUACAUGACUUCAGUGAUGUUGAAGUGAUGAUUUAGUGAUGUAGCAGGUAGGUCGCCUAGAUGUUA [KL-XARG-B8] | 98.3 nM | 41.2 nM | 77.2 nM | 77.5 nM | 62.5 nM |
| CGCGGCCGGCCGGAUACCAGUGACCCGCUGGCAACCGCGGGCCCAGAGUGAUGUUCGGGACACCCUUGGCAGCCGCCUGGGCGUG [#2 Same State - Theophylline B Attempt #4 (HarryS)] | 521 nM | 309 nM | 483 nM | 694 nM | 396 nM |
| UGGAGGAAUCGACCUCGAAAGAGGAUGGAUACCAGAGAAGAAAUUCUCCCUUGGCAGCCAGUGAUGUUGGAACCUCCUAAAUAAA [#SwitchBubble 18 #K4Late] | 609 nM | 445 nM | 706 nM | 354 nM | 622 nM |
| UGAUAGGAGUGAAGGAGCGGGAGUGAUGUUCCCAAAAUGGAAGCCUGUAAAAUACAGGCCUCCCAGGUAGGUCGCACUCCUAUCU [KL-XARG-B17] | 98.3 nM | 112 nM | 101 nM | 117 nM | 94.7 nM |
| AGUGAUGUUUUUUUUAAGAGUGAUGUUUUUCGAGGACCGGUACGGCCGCCACUCGAGUGAUGAGUGAGGUGUGGUGAUGUUUAGU [#09 K4 Tryptophan A Exclusion] | 287 nM | 279 nM | 351 nM | 316 nM | 205 nM |
| UGAUAGGACAGAAGGAGCGGGAGUGAUGUUCCCAAAAGAAUAAGGUGUCAAAAGACACCCUUCCAGGUAGGUCGCUGUCCUAUCU | 82.2 nM | 131 nM | 106 nM | 119 nM | 87.4 nM |
| AAGAGCUAGGCGGCCGCCACUAGAUGUGAACACAUACAAGCCAGUGAUGUUGGUAUGAUGGACGGUAGGACCGGGCCUAGCUGAA [Exclusion - Tryptophan B (Freestyle 12)] | 290 nM | 464 nM | 394 nM | 381 nM | 294 nM |
